From publication PMC9597087

Molecular target: microtubules (human (endogenous in U2-OS)) (UniProt Q71U36)
Test: FRAP (fluorescence recovery after photobleaching); living U2-OS cells 48h after transfection, interphase, no STLC; 1.5 um^2 areas bleached, spinning disk confocal; traces analysed with easyFRAP, normalised to pre-bleaching intensity

With “GFP-tagged Eg5(T107N) (from UniProt P52732 1-1056) (natural protein)” the mobility fraction (FRAP) was 0.06.
